Bridges are numbered along the chain shown (N, C = ends). Where no end group is shown, it is not given here.
B1: Construct 12 (designed binder, not shown: small tags and cut ends)
chain: LWDDCYSFPNPPHCYNSP
modifications: disulfide 5-14 (inferred); not fully specified (N-terminus, C-terminus); also: ELP-MRD fusion, type and number of ELP repeats not given here
B2: Construct 13 (designed binder, not shown: small tags and cut ends)
chain: LWDDCYSFPNPPHCYNSP
modifications: disulfide 5-14 (inferred); not fully specified (N-terminus, C-terminus); also: ELP-MRD fusion, type and number of ELP repeats not given here

Target: recombinant human angiopoietin-2 (rhAng2) (human) (UniProt O15123)
Chain of UniProt O15123 (O15123 19-496 limits assumed): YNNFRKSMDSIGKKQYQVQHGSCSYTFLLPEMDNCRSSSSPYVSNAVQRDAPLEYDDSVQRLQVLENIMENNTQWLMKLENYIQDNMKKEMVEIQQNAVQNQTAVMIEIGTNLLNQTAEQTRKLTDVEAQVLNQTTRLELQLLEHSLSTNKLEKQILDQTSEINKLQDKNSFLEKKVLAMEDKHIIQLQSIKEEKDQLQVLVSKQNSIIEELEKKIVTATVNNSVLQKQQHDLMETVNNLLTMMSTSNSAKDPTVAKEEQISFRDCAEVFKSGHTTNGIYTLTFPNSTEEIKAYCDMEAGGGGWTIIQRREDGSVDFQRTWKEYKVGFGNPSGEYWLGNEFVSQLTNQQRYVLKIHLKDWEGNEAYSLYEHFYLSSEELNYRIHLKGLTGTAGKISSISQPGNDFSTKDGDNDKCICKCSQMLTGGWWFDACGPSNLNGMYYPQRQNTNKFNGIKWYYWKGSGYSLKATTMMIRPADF
Experiment: direct ELISA on rhAng2-coated wells, detection by HRP-anti-His tag antibody, OD450

Row | Binder | EC50 (read off the curve)
1 | B1 | 9 nM
2 | B2 | 9 nM
